We go through five substances from paper PMC9674691.

Series [1] concerns the target biotinylated NmeHNH (Neisseria meningitidis) (UniProt C9X1G5). Briefly: BLI; biotinylated NmeHNH on streptavidin biosensors, Acr as analyte, 37 °C, 20 mM Tris, 100 mM NaCl, pH 7.4 without DTT; global 1:1 fit. For orientation: Biolayer interferometry detects binding as a change in optical thickness at a sensor tip.
Series [2] shares this target. Briefly: BLI; biotinylated NmeHNH on streptavidin biosensors, Acr as analyte, 37 °C, 20 mM Tris, 100 mM NaCl, pH 7.4 with 1 mM DTT; global 1:1 fit.
Series [3] concerns the target Cys17 (UniProt position 17, AGYDGCGLCLA). Briefly: NMR. To be noted: 25 °C (general statement in the NMR methods), 100 mM NaCl, 50 mM Tris, buffer-exchanged at each pH, Free protein. Reduced monomer is inferred from Cbeta shifts of about 25.5-29.5 ppm, typical of free thiol. The presence of a reductant in the titration buffer is not stated.
Series [4] deals with Cys80 (UniProt position 80, VGMASCWEFVE). Briefly: NMR. Particulars: 25 °C (general statement in the NMR methods), 100 mM NaCl, 50 mM Tris, buffer-exchanged at each pH, Free protein. Reduced monomer is inferred from Cbeta shifts of about 25.5-29.5 ppm, typical of free thiol. The presence of a reductant in the titration buffer is not stated.
The target of series [5] is BoeAcrIIC1 (AcrIIC1 ortholog from Brackiella oedipodis) (Brackiella oedipodis). Briefly: SEC + other: 1H NMR spectra; AcrIIC1 ortholog alone, oxidizing condition.
For series [6], the target named is NmeAcrIIC1 (AcrIIC1 from Neisseria meningitidis), reduced form (Neisseria meningitidis). Briefly: SEC; NmeAcrIIC1 alone, no reductant in the buffer or excess H2O2 added to the monomer eluent. (In general: SEC sorts molecules by how far they enter the pores of the column.)

Broadly, the Kd is the equilibrium constant for the complex coming apart. Low values mean higher affinity, high ones lower affinity. “AcrIIC1-SS (NmeAcrIIC1 with Cys17 and Cys80 substituted with serine) (natural protein)”: the results for the equilibrium dissociation constant (Kd) in series [1] and in series [2] were 10.8 nM and 12.7 nM, respectively.

For orientation: pKa means the negative logarithm of the acid dissociation constant. “Anti-CRISPR protein AcrIIC1 (NmeAcrIIC1) (Neisseria meningitidis)”: the pKa in series [3] was 8.920 ± 0.158; in series [4], 8.258 ± 0.218. As a reminder, the stoichiometry N is a count of units in the complex or per binding partner. With “BoeAcrIIC1 (AcrIIC1 ortholog from Brackiella oedipodis) (natural protein)”, in series [5], the stoichiometry N amounted to 2.

“NmeAcrIIC1 (AcrIIC1 from Neisseria meningitidis), reduced form (natural protein)” displayed a stoichiometry N in series [6] of 2. Moreover, the Kd in series [2] was determined as 1.78 nM. Turning to “oxidized NmeAcrIIC1 dimer (natural protein)”, in series [1], the BLI response is under 0.05.
